B1: MBP–FDc(T282E), N-terminal MBP-fused, truncated FD (amino acids 215–285) [Arabidopsis thaliana] / itself (parent)
chain: NRRHKRMIKNRESAARSRARKQAYTNELELEVAHLQAENARLKRQQDQLKMAAAIQQPKKNTLQRSSEAPF
B2: MBP–FDc(T282E), N-terminal MBP-fused, truncated FD (amino acids 215–285) [Arabidopsis thaliana] / GRF7 (14-3-3ν), recombinant [Arabidopsis thaliana] (parent)
chain 1: B1 chain
chain 2: MSSSREENVYLAKLAEQAERYEEMVEFMEKVAKTVDTDELTVEERNLLSVAYKNVIGARRASWRIISSIEQKEESRGNDDHVSIIKDYRGKIETELSKICDGILNLLDSHLVPTASLAESKVFYLKMKGDYHRYLAEFKTGAERKEAAESTLVAYKSAQDIALADLAPTHPIRLGLALNFSVFYYEILNSPDRACSLAKQAFDEAISELDTLGEESYKDSTLIMQLLRDNLTLWNSDINDEAGGDEIKEASKHEPEEGKPAETGQ

Variants of: B1
Assay: SEC-MALS
Conditions: with itself

| screen value [kD] | Variant |
| --- | --- |
| 55 | NRRHKRMIKNRESAARSRARKQAYTNELELEVAHLQAENARLKRQQDQAKMAAAIQQPKKNTLQRSSEAPF [chain 1 L49A] |
| 55 | NRRHKRMIKNRESAARSRARKQAYTNELELEVAHAQAENARLKRQQDQLKMAAAIQQPKKNTLQRSSEAPF [chain 1 L35A] |
| 55 | NRRHKRMIKNRESAARSRARKQAATNELALEVAHLQAENARLKRQQDQLKMAAAIQQPKKNTLQRSSEAPF [chain 1 Y24A E29A] |
| 55 | NRRHKRMIKNRESAARSRARKQAYTNELELEVAHLQAENARAKRQQDQLKMAAAIQQPKKNTLQRSSEAPF [chain 1 L42A] |
| 55 | NRRHKRMIKNRESAARSRARKQAYTNEAELEVAHLQAENARLKRQQDQLKMAAAIQQPKKNTLQRSSEAPF [chain 1 L28A] |

Variants of: B2
Assay: SEC-MALS
Conditions: with GRF7 (14-3-3ν), free GRF7 peak marked 60 kD

| screen value [kD] | Variant |
| --- | --- |
| 117 | chain 1 NRRHKRMIKNRESAARSRARKQAATNELALEVAHLQAENARLKRQQDQLKMAAAIQQPKKNTLQRSSEAPF [chain 1 Y24A E29A] |
| 116 | chain 1 NRRHKRMIKNRESAARSRARKQAYTNELELEVAHAQAENARLKRQQDQLKMAAAIQQPKKNTLQRSSEAPF [chain 1 L35A] |
| 117 | chain 1 NRRHKRMIKNRESAARSRARKQAYTNELELEVAHLQAENARAKRQQDQLKMAAAIQQPKKNTLQRSSEAPF [chain 1 L42A] |
| 168 | chain 1 NRRHKRMIKNRESAARSRARKQAYTNELELEVAHLQAENARLKRQQDQAKMAAAIQQPKKNTLQRSSEAPF [chain 1 L49A] |
